Molecular target: FLAG-tagged human PrP^c_N1 (recombinant N-terminal fragment of cellular prion protein, 23-111 amino-acids) (human) (UniProt P04156)
Sequence (P04156 23-111): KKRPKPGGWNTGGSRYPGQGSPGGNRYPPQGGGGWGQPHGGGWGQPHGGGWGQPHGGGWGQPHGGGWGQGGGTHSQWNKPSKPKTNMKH

Substance: anti-CD230 (Prion) antibody 6D11 Mu IgG2a (BioLegend, San Diego, Calif.)
- IC50: 17.6 nM
